Experimental data as given in PMC6262466, “Towards Initial Indications for a Thiol-Based Redox Control of Arabidopsis 5-Aminolevulinic Acid Dehydratase” (Antioxidants, 2018).

Molecular target: the molecule itself
Assay: non-reducing SDS-PAGE with immunoblot; 0.5 uM purified His-ALAD preincubated in PBS, untreated or oxidized (1 mM H2O2); non-reducing 10% SDS polyacrylamide gel; anti-His blot

B1: recombinant His-tagged ALAD (ALAD1 without the predicted transit peptide) (enzyme, Arabidopsis thaliana, UniProt Q9SFH9 53-430, looked up)
chain: ASESGNGHAKKLGMSDAECEAAVAAGNVPEAPPVPPKPAAPVGTPIIKPLNLSRRPRRNRASPVTRAAFQETDISPANFVYPLFIHEGEEDTPIGAMPGCYRLGWRHGLVQEVAKARAVGVNSIVLFPKVPEALKNSTGDEAYNDNGLVPRTIRLLKDKYPDLIIYTDVALDPYSSDGHDGIVREDGVIMNDETVHQLCKQAVSQARAGADVVSPSDMMDGRVGAIRSALDAEGFQNVSIMSYTAKYASSFYGPFREALDSNPRFGDKKTYQMNPANYREALIEAREDEAEGADILLVKPGLPYLDIIRLLRDKSPLPIAAYQVSGEYSMIKAGGVLKMIDEEKVMMESLMCLRRAGADIILTYFALQAATCLCGEKR
notes: Arabidopsis thaliana ALAD1 (HEMB1; AT1G69740) without the predicted transit peptide (ChloroP); also called recombinant ALAD; purified ALAD; source: E. coli Rosetta(DE3), pET28a, purified (Ni-NTA agarose); not shown: His6, N-terminal, kept
Q: Does B1 bind?
A: Result: binds
